Measured values as given in the supplement of paper PMC7125110.
± gives the standard error. Variants at the floor of the assay were thinned out.

B1: glmS ribozyme (parent)
chain: AUAAAAGCGCCAGAACUACAGAAAUGUAGUUGACGAGGAGGAGGUUUAUCGAAUUUUCGGCGGAUGCCUCCAAA

Key:
Conditions in all cases: with glucosamine-6-phosphate
[1] = variants of: B1; test: self-cleavage kobs at 160 uM GlcN6P; higher = faster cleavage; RNA array
In short: (§1)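 Using a hybridised Cy3 probe at 37 °C, barcoded ribozyme variants transcribed in situ by E. coli RNA polymerase on sequenced MiSeq chips were monitored across tiles imaged over ~14 h. The flow contained glucosamine-6-phosphate from 40 μM to 10 mM in HEPES/KCl/Mg(OAc)2 buffer. Signals were normalised to baseline and to non-cleaving reference variants before per-tile medians were fit to one- or two-exponential decays to yield kobs. Weighted Michaelis–Menten fits across concentrations gave kcat and KM.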

[2] = variants of: B1; test: self-cleavage kobs at 640 uM GlcN6P; higher = faster cleavage; RNA array
In short: as §1

[3] = variants of: B1; test: self-cleavage kobs at 2500 uM GlcN6P; higher = faster cleavage; RNA array
In short: as §1

[4] = variants of: B1; test: self-cleavage kobs at 10000 uM GlcN6P; higher = faster cleavage; RNA array
In short: as §1

Variant	self-cleavage kobs at 160 uM GlcN6P [1] [s⁻¹]	self-cleavage kobs at 640 uM GlcN6P [2] [s⁻¹]	self-cleavage kobs at 2500 uM GlcN6P [3] [s⁻¹]	self-cleavage kobs at 10000 uM GlcN6P [4] [s⁻¹]
G35C U55A	< 1e-05	< 1e-05	< 1e-05	
G41C G66U	< 1e-05	< 1e-05		
G41C G43A G44C C68U C71U	< 1e-05		< 1e-05	
G35A C58U	< 1e-05		< 1e-05	< 1e-05
A33U C50U C61A C68G C70U	0.000144 ± 4.4e-05	0.000229 ± 6.4e-05		
A33G G35A A36C A64G	< 1e-05			
A33C U57G	< 1e-05			
A39C G40C A52G	< 1e-05	< 1e-05		
G43A U55G	< 1e-05		4.42e-05 ± 1.1e-05	5.21e-05 ± 7.9e-06
A39C A48G	< 1e-05			3.36e-05 ± 1.2e-05
G38A G41A U45C A52G	< 1e-05	< 1e-05		
G41A G51C G63U C70G	< 1e-05	< 1e-05		
U31C G32C C70G	0.000701 ± 0.0003		0.000104 ± 2.4e-05	
G40U G60A U65G	< 1e-05	< 1e-05	< 1e-05	
G32U A42U	< 1e-05	< 1e-05		
G38C G51U U57C	< 1e-05		< 1e-05	
G41A C68U C70U	0.000155 ± 3.4e-05	0.00049 ± 8.2e-05	0.00138 ± 0.00025	
G35C A64G	< 1e-05	< 1e-05	< 1e-05	
A33C C50A C71G	< 1e-05			
G38C G41U G63C	< 1e-05		< 1e-05	
G35A U55C	< 1e-05	< 1e-05	< 1e-05	< 1e-05
A36C U46G A52G G60U	< 1e-05	< 1e-05	< 1e-05	
G35U U46C	< 1e-05	< 1e-05		
G32A G44C G66A C68A	< 1e-05	< 1e-05	< 1e-05	
G37C G43C	< 1e-05	< 1e-05	< 1e-05	< 1e-05
G35C C50U A53C	< 1e-05	< 1e-05	< 1e-05	

Variant	self-cleavage kobs at 160 uM GlcN6P [1] [s⁻¹]	self-cleavage kobs at 640 uM GlcN6P [2] [s⁻¹]	self-cleavage kobs at 2500 uM GlcN6P [3] [s⁻¹]	self-cleavage kobs at 10000 uM GlcN6P [4] [s⁻¹]
G40C G59U	< 1e-05	< 1e-05	< 1e-05	
A42C A52C C67G	< 1e-05			
G35A C50G G59C U65G	4.37e-05 ± 1.9e-05	< 1e-05		
G38C U55A	< 1e-05	< 1e-05		
G38A A39C G40U G43A U49G U54C	< 1e-05	< 1e-05	< 1e-05	
G41U U46G C61A	< 1e-05	< 1e-05	< 1e-05	
G32A U49C C61A	< 1e-05			
C34U A36G	< 1e-05	< 1e-05	< 1e-05	
A36U U45C	< 1e-05	< 1e-05	< 1e-05	< 1e-05
G37C G41C	< 1e-05	< 1e-05	< 1e-05	
C34U C61G	< 1e-05	< 1e-05		< 1e-05
G35A U49A	< 1e-05	< 1e-05		< 1e-05
A42C G43C C68A C71A	< 1e-05		< 1e-05	
A36U G43A A52U G63A C67A	< 1e-05			
A36G C58A G60A	< 1e-05	< 1e-05		< 1e-05
G41A G62C	< 1e-05	< 1e-05	< 1e-05	
G38A A64G	< 1e-05			
G35C G63C	< 1e-05	< 1e-05	< 1e-05	
U31C C58A A64C	< 1e-05		< 1e-05	
A33C C70A	< 1e-05	< 1e-05		< 1e-05
A42U C61A	< 1e-05	< 1e-05	< 1e-05	< 1e-05
A33C C34G	< 1e-05			
G38U G41A C58A C61A	< 1e-05	< 1e-05		
G38C G41C	< 1e-05	< 1e-05	< 1e-05	
G38C C61U C71U	< 1e-05			
G43A U49C G66A C70G	< 1e-05	< 1e-05	< 1e-05	

Variant	self-cleavage kobs at 160 uM GlcN6P [1] [s⁻¹]	self-cleavage kobs at 640 uM GlcN6P [2] [s⁻¹]	self-cleavage kobs at 2500 uM GlcN6P [3] [s⁻¹]	self-cleavage kobs at 10000 uM GlcN6P [4] [s⁻¹]
A36G G38U	< 1e-05			< 1e-05
G35C U54C G63A	< 1e-05		< 1e-05	
G32C G35A	< 1e-05	< 1e-05	< 1e-05	< 1e-05
A33G G37U G59C	< 1e-05		< 1e-05	
G40C U56A	0.000154 ± 3.3e-05	0.000308 ± 6.3e-05	0.00115 ± 0.00026	
C34A U49C	< 1e-05	< 1e-05	< 1e-05	< 1e-05
A33U C68G C71A	< 1e-05	< 1e-05		
A36C G66C	< 1e-05	< 1e-05		< 1e-05
G38U G62C	< 1e-05	< 1e-05		
C34U U47A	< 1e-05		< 1e-05	
G32U G51U A53U G66U C71U	< 1e-05	< 1e-05	< 1e-05	
G41U U65A C68G	< 1e-05		< 1e-05	
G37U G38C C71U	< 1e-05	< 1e-05		
G41C G63A	< 1e-05	< 1e-05		
G32U C34G G43A	< 1e-05	< 1e-05	< 1e-05	
C34A A39C U49A U55C	< 1e-05			
A36U G44A U55A	< 1e-05		< 1e-05	
G35C G40A A42U	< 1e-05	< 1e-05	< 1e-05	
G35C U46A U56A C61U C68U	< 1e-05		< 1e-05	
G43A C61G C67U C70U	< 1e-05	< 1e-05		
U31G U49C C67U	< 1e-05			
G38A U54G C68A	5.08e-05 ± 2e-05			
A33U U54G U56G C61G U69C	9.03e-05 ± 2.7e-05	0.00035 ± 0.00013	0.000171 ± 6e-05	
A36C A52C	< 1e-05			< 1e-05
A33U A64G	< 1e-05			6.18e-05 ± 1.1e-05
C34U U54A U69G	0.000126 ± 4.6e-05	0.000598 ± 0.0002	0.000128 ± 4.7e-05	0.000125 ± 3.4e-05

Variant	self-cleavage kobs at 160 uM GlcN6P [1] [s⁻¹]	self-cleavage kobs at 640 uM GlcN6P [2] [s⁻¹]	self-cleavage kobs at 2500 uM GlcN6P [3] [s⁻¹]	self-cleavage kobs at 10000 uM GlcN6P [4] [s⁻¹]
A39C G51A G63C	< 1e-05	< 1e-05		
A33U C61G C70U	< 1e-05			
G35C C70U	< 1e-05	< 1e-05		< 1e-05
A33G U45G U69A	< 1e-05	< 1e-05		
G37U G44A G66U	< 1e-05			
A36C U56A	< 1e-05	< 1e-05	< 1e-05	
U31C U54C C67U	8.1e-05 ± 1.6e-05	0.000176 ± 3.7e-05	0.000804 ± 0.0002	
G32U A48U G60A	< 1e-05			
A36U U57C	< 1e-05			< 1e-05
A33U G63C	< 1e-05	< 1e-05	< 1e-05	< 1e-05
G41U G51C G62A C68U	< 1e-05	< 1e-05	< 1e-05	
A39U G40C U46C	5.92e-05 ± 1.4e-05	0.000338 ± 5.3e-05	0.000277 ± 7.4e-05	
G32U G38U U54G	< 1e-05			
A36G A64G C71U	< 1e-05	< 1e-05		
G41A A53U U54G	0.000102 ± 3.4e-05	0.000241 ± 8.7e-05	0.000742 ± 0.0002	0.000285 ± 7.8e-05
G40U C67G	< 1e-05	< 1e-05		
C34A C50G	5.9e-05 ± 1.6e-05	0.000448 ± 0.00021		
G35C U65C G66A	< 1e-05	< 1e-05	< 1e-05	
G40C G63A	< 1e-05	< 1e-05	< 1e-05	< 1e-05
C34U G37A C50A A52G C70G	0.000507 ± 0.00015	0.000453 ± 0.00013	0.000268 ± 9.2e-05	
G37C G51U	< 1e-05			< 1e-05
U31G U45C C67G	0.000177 ± 7.3e-05		0.00223 ± 0.0006	
G40U A64U U65G C71G	< 1e-05	< 1e-05		
G37A C50G U69C	5.92e-05 ± 1.9e-05	7.07e-05 ± 2.7e-05		
A39C A53U G59U C67U	< 1e-05			
A39U G40A A64G	0.000419 ± 0.00012	0.000775 ± 0.00021	0.00738 ± 0.0025	
